In US20230358760, “APTAMERS THAT TARGET CXCL9” (RHEINISCHE FRIEDRICH-WILHELMS-UNIVERSITÄt BONN, published 2023):

Assays:
[1] = target: T1, CXCL9 (MIG) (Homo sapiens) (UniProt Q07325); experiment: ELONA; conditions: n=2
T1 sequence: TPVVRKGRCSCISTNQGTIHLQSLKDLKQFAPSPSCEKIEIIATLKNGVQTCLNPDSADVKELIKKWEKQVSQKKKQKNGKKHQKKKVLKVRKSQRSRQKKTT

CXCL11 (Homo sapiens) = target: T2, CXCL11 (Homo sapiens) (UniProt O14625); experiment: ELONA; conditions: n=2
T2 sequence: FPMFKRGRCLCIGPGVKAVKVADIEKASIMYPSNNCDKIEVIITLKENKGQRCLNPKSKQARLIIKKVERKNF

CXCL11 = target: T3, CXCL11 (Homo sapiens, UniProt O14625 O14625:22-94); experiment: ELONA; n=2; conditions: tags: Cell guidance system; label: 5' biotin or Cy5; G4
T3 sequence: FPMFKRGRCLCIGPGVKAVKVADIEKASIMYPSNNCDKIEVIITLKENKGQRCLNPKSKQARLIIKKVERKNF
Protocol: (§1) 20 μl of 1 μg/ml protein in bicarbonate/carbonate buffer pH 9.6 was coated overnight at 4° C. on 96 well half area plates (Greiner Bio). After washing three times with 100 μL WB1 (PBS+0.05% Tween 20), wells were blocked with 1% BSA in PBS for 2 h at RT with slight agitation. […] Wells were washed once with 100 μL WB2 (138 mM NaCl, 5 mM KCl, 1.5 mM KH₂PO₄, 8.1 mM Na₂HPO₄, 170 mM urea, 7 mM ammonium acetate, 1 mM MgCl₂, 1 mM CaCl₂), pH 6.5).
(§2) DNA was diluted to respective concentration in SB1 and 20 μL is transferred onto the wells in duplicates (protein and BSA wells). After incubation of 30 min at RT and slight agitation, the wells were washed two times with 100 μL WB1 and are incubated with 20 μL of streptavidin-horseradish peroxidase (SA-HRP) solution (1:1000 in PBS, GE Healtcare). After 30 min incubation at RT the wells were washed again twice with 100 μL WB1. Finally, the complex was incubated with 1-Step ABTS (ThermoFisher) for 15-40 min at RT, slight agitation. Absorbance at 405 nm was read out with a Tecan Nanoquant plate reader. Binding of DNA to BSA background was subtracted from binding of DNA to protein sample.

CCL3 = CCL3 (Homo sapiens, UniProt P10147 P10147:24-92); experiment: ELONA; DNA at 2x KD; conditions: tags: Peprotech; label: 5' biotin or Cy5; G4
CCL3, sequence (P10147 24-92, one chain of several): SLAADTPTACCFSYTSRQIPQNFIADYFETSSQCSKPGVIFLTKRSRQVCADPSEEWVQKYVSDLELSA
Protocol: as §1, §2
(§3) Binding of aptamers of SEQ ID NO: 4 (G123) and SEQ ID NO: 5 (I29) to different proteins was determined using ELONA. […] The pro-inflammatory chemokines CXCL9, CXCL10, CXCL11, and CXCL1 were used, as well as soluble interleukin-2 receptor (sCD25), C-reactive protein (CRP), C—C motif chemokine ligand 17 (CCL17), C—C motif chemokine ligand 22 (CCL22), C—C motif chemokine ligand 3(CCL3) and human serum albumin (HAS).

CXCL1 = CXCL1 (Homo sapiens, UniProt P09341 P09341:35-107); experiment: ELONA; DNA at 2x KD; conditions: tags: Cell guidance system; label: 5' biotin or Cy5; G4
CXCL1, sequence (P09341 35-107, one chain of several): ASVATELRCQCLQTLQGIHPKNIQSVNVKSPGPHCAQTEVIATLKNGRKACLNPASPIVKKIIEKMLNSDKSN
Protocol: as §1, §2, §3

CCL17 = CCL17 (Homo sapiens, UniProt Q92583 Q92583:24-94); experiment: ELONA; DNA at 2x KD; conditions: tags: BioLegend; label: 5' biotin or Cy5; G4
CCL17, sequence (Q92583 24-94, one chain of several): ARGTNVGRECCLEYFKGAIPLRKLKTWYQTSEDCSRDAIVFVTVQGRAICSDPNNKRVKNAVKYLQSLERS
Protocol: as §1, §2, §3

CCL22 = target: T4, CCL22 (Homo sapiens, UniProt O00626 O00626:25-93); experiment: ELONA; DNA at 2x KD; conditions: tags: BioLegend; label: 5' biotin or Cy5; G4
T4 sequence: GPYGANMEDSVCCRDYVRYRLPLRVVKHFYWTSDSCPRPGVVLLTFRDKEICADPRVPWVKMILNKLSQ
Protocol: as §1, §2, §3

[2] = target: sCD25 (soluble interleukin-2 receptor) (Homo sapiens, UniProt P01589 P01589:22-240); experiment: ELONA; DNA at 2x KD; conditions: tags: Antikorper online; label: 5' biotin or Cy5; G4
sCD25 (soluble interleukin-2 receptor), sequence (P01589 22-240, one chain of several): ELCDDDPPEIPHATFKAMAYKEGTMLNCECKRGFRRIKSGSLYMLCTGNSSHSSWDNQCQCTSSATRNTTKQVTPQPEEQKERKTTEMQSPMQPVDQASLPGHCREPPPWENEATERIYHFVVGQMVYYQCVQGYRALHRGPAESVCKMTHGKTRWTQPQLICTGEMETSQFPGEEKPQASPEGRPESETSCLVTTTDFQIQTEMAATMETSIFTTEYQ
Protocol: as §1, §2, §3

CRP (C-reactive protein) = target: T5, CRP (C-reactive protein) (Homo sapiens, UniProt P02741 P02741:19-224); experiment: ELONA; DNA at 2x KD; conditions: tags: BioRad; chain copies: 5; label: 5' biotin or Cy5; G4
T5 sequence: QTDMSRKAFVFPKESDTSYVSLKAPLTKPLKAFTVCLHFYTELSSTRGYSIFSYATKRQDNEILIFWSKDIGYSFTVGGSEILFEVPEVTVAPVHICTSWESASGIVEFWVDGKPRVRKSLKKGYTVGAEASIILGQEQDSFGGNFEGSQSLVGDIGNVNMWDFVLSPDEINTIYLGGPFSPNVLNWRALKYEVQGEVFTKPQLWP
Protocol: as §1, §2, §3

CXCL10 = CXCL10 (Homo sapiens, UniProt P02778 P02778:22-98); experiment: ELONA; DNA at 2x KD; conditions: tags: Cell guidance system; label: 5' biotin or Cy5; G4
CXCL10, sequence (P02778 22-98, one chain of several): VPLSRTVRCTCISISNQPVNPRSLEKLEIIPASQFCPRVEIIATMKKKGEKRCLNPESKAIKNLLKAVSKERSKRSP
Protocol: as §1, §2, §3

[3] = target: HSA (human serum albumin) (Homo sapiens, UniProt P02768 P02768:25-609); experiment: ELONA; DNA at 2x KD; conditions: tags: Sigma-Aldrich; label: 5' biotin or Cy5; G4
HSA (human serum albumin), sequence (P02768 25-609, one chain of several): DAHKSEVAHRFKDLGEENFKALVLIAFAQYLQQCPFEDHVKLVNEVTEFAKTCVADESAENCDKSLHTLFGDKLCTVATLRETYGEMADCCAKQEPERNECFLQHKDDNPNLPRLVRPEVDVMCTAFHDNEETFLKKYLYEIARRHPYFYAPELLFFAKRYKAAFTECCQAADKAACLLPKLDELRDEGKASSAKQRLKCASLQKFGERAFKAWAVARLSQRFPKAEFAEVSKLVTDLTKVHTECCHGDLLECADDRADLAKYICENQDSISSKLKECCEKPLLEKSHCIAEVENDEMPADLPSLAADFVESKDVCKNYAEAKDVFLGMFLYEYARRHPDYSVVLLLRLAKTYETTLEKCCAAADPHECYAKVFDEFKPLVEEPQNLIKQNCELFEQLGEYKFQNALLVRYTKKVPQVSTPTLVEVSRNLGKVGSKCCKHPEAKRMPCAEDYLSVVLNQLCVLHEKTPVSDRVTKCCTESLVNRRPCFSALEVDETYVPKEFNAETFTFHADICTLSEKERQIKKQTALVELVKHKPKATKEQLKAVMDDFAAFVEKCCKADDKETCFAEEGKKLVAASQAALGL
Protocol: as §1, §2, §3

CXCL9 (MIG) [4] = target: T6, CXCL9 (MIG) (Homo sapiens, UniProt Q07325 Q07325:23-125); experiment: ELONA; n=2; conditions: tags: Origene; immobilised on magnetic beads for flow cytometry; label: 5' biotin or Cy5; G4
T6 sequence: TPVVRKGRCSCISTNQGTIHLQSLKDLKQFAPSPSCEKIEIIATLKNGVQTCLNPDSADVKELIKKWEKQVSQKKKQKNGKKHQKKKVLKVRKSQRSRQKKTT
Protocol: as §1
as §2, with “Binding of DNA to BSA background was subtracted from binding of DNA to protein sample.” left out
In parallel, the influence of indole (In) modification and azide without modification (E) on the affinity of aptamer SEQ ID NO: 4 (G123) was determined using ELONA and compared to the affinity of unmodified DNA (DNA). […] In the table, “+” represents successful binding, while “−” means no detection of binding, “n.d.” denotes not determined.

CXCL9 (MIG) [5] = target: T6, CXCL9 (MIG); experiment: flow; scrambled non-binding control; conditions: tags: Origene; immobilised on magnetic beads for flow cytometry; label: 5' Cy5
Protocol: The binding of indole-modified aptamer of SEQ ID NO: 5 (I29 In), unmodified aptamer of SEQ ID NO: 6 (G123 DNA), and indole-modified aptamer of SEQ ID NO: 4 (G123 In) to pro-inflammatory chemokine CXCL9 was determined in competition assay. 100 nM Cy-5 labelled DNA was incubated simultaneous with 1 μM unlabelled DNA and thus competed for binding. After incubation the remaining Cy5 labelled DNA on CXCL9-magnetic beads was analysed with flow cytometry as described above. As control, Cy5-labeled DNA without competitor was analysed and was used to normalize data.
Binding of Cy5 labelled scrambled sequence is used as non-binding control. (n=2, mean±SD).

[6] = indole-clicked EdU at all N [31,45,49,53 (indole-clicked EdU)]
[7] = indole-clicked EdU at all N (28,44,47,49,50) [28,44,47,49,50 (indole-clicked EdU)]

CACGACGCAAGGGACCACAGGAGAGACTCACGGGCGGGCGACCTACTGTTCAGCCCAGACCGACAGCACGACACCGCAGAGGCA [I29 BnFu]
Kd ([1]; benzofurane-clicked EdU at all N [28,44,47,49,50 (benzofurane-clicked EdU)]): 17 nM

CACGACGCAAGGGACCACAGGAGAGACTCACGGGCGGGCGACCTACTGTTCAGCCCAGACCGACAGCACGACACCGCAGAGGCA [I29 Phe]
Kd ([1]; phenol-clicked EdU at all N [28,44,47,49,50 (phenol-clicked EdU)]): 177 nM

CACGACGCAAGGGACCACAGGAGAGACTCACGGGCGGGCGACCTACTGTTCAGCCCAGACCGACAGCACGACACCGCAGAGGCA [I29 Naph]
Kd ([1]; naphthalene-clicked EdU at all N [28,44,47,49,50 (naphthalene-clicked EdU)]): 21 nM

CACGACGCAAGGGACCACAGGGAGGGAGGGTGGGCAAAGGGCCCTAAGTCCGTAACAAAAACACAGCACGACACCGCAGAGGCA [G123 In]
Kd (CXCL11 (Homo sapiens); [6]): 73 nM
Kd [1, 6]: 39 nM

CACGACGCAAGGGACCACAGGAGAGACTCACGGGCGGGCGACCTACTGTTCAGCCCAGACCGACAGCACGACACCGCAGAGGCA [I29 In]
Kd (CXCL11 (Homo sapiens); [7]): 17 nM
Kd [1, 7]: 12 nM

B1: G123 DNA (ssDNA)
DNA: CACGACGCAAGGGACCACAGGGAGGGAGGGTGGGCAAAGGGCCCTAAGTCCGTAACAAAAACACAGCACGACACCGCAGAGGCA
Kd (CXCL11): 249 nM
binding result (CCL3): no binding
binding result (CXCL1): no binding
binding result (CCL17): no binding
binding result (CCL22): no binding
binding result [2]: no binding
binding result (CRP (C-reactive protein)): no binding
binding result (CXCL10): no binding
binding result [3]: no binding
Kd (CXCL9 (MIG) [4]): 92 nM

B2: G123.sc (ssDNA)
DNA: CACGACGCAAGGGACCACAGGAGGAGAGTAGGCGATACACGACGTAGCGCAGATAGGACCAAGCAGCACGACACCGCAGAGGCA
modifications: N = T or EdU [29,36,45,54 (T or EdU)]
binding result (CXCL9 (MIG) [5]): no binding
